Biological target: the molecule itself
Experiment: bead aggregation assay

B1: NcadEC-Fc (secreted ectodomain of zebrafish N-cadherin fused to the Fc region of human IgG) (Fc fusion, UniProt Q90275 147-711, looked up)
chain: DWVIPPVNVLENSRKQFPEELVKIQSDKDKSNTLRYSVTGPGADQNPTGLFIIDPISGLLSVTKPLDREHIPNFHLRAHAVDINGNQMENPIDIIINVIDMNDNRPEFTHQIWNGTVDEGAKPGTFVMTVTSQDKDDPNTANGMLRYKILSQTPESPSSNMFTINNKTGKIITVAAGLDREKVPQYTLIIQATDMEGNPTYGLSNTATAVIRLLDVNDNAPEFTRETFHGEVPENRVNVIVTNLTVTDKDEPGTPAWNAVYRIISGDPTGRFSIPTDPVTNEGLVTVVKPVDFEMNRSFMLTVVADNEVPLASGIHRTRQSTATVSIRVIDVNESPNFDPNPKQIKLEEGLPQWSMLTTFTAHDPDRYMQQTISYSKLYDPANWLEIDPNNGRISTIAVLDRESPYVKNNLYNATFMASDNGVPRASGTGTLQIYLLDINDNAPRVFPQEAEVCERPEPNAINITAVDGDLNPNAGPYAFELPNRPSDIRRNWTLTRISGDHAQLSLKISYLESGIYELPISITDSGNLPMSNTTYLRIKVCQCDHHGDCVDMERIMAAGLGTGA
  binding result: binds

— paper PMC3246890 (The Journal of Cell Biology, 2011)
